Source: PMC9482650, “Quantitative fragmentomics allow affinity mapping of interactomes” (Nature Communications, 2022)

T1: APBA2_2, Q99767
T1 sequence (Q99767 654-744, limits assumed, looked up): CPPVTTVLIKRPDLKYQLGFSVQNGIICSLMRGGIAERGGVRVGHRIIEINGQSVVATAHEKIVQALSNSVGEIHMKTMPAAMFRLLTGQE

T2: LIN7C, Q9NUP9
T2 sequence (Q9NUP9 88-185, limits assumed, looked up): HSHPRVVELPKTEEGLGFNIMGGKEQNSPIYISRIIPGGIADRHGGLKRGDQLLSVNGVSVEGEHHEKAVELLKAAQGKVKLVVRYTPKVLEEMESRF

T3: HTRA4, P83105
T3 sequence (P83105 378-476, limits assumed, looked up): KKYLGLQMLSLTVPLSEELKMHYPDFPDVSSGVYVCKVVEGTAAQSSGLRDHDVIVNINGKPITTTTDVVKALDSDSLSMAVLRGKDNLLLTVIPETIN

T4: LNX2_2, Q8N448
T4 sequence (Q8N448 334-432, limits assumed, looked up): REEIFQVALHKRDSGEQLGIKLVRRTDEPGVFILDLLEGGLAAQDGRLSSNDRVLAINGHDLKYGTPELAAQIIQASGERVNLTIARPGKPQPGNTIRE

T5: ARHGAP21, Q5T5U3
T5 sequence (Q5T5U3 45-169, limits assumed, looked up): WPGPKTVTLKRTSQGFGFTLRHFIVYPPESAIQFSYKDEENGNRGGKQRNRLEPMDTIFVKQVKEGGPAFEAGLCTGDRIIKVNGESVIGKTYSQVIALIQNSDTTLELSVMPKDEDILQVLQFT

T6: PDZRN3_1, Q9UPQ7
T6 sequence (Q9UPQ7 244-349, limits assumed, looked up): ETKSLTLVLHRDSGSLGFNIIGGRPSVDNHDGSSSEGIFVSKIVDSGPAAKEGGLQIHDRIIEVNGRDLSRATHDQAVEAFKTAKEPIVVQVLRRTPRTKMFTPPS


molecular target: T1, APBA2_2, Q99767; assay: holdup assay; parameters: key: below the threshold = too weak to quantify, mostly under pKd 3.1 to 4; conditions: plain residues with an end cap or a label only (N-terminal biotin on a linker: ado-ado)

Binder	pKd
FTLPAESSEI [PLEKHG7, Q6ZR37]	below the threshold
EWTDERQSKV [GAB3, Q8WWW8]	below the threshold

molecular target: Inadl_4, Q8NI35; assay: holdup assay; parameters: key: below the threshold = too weak to quantify, mostly under pKd 3.1 to 4; conditions: plain residues with an end cap or a label only (N-terminal biotin on a linker: ado-ado)
Sequence (Q8NI35 547-651): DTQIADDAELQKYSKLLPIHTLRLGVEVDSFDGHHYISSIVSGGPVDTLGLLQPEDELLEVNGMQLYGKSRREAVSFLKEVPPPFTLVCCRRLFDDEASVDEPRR

Binder	pKd
FTLPAESSEI [PLEKHG7, Q6ZR37]	below the threshold
EWTDERQSKV [GAB3, Q8WWW8]	below the threshold

molecular target: GRASP, Q7Z6J2; assay: holdup assay; parameters: key: below the threshold = too weak to quantify, mostly under pKd 3.1 to 4; conditions: plain residues with an end cap or a label only (N-terminal biotin on a linker: ado-ado)
Sequence (Q7Z6J2 96-193): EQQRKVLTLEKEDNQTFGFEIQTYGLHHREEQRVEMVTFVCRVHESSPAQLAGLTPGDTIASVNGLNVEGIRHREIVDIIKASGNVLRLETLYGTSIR

Binder	pKd
FTLPAESSEI [PLEKHG7, Q6ZR37]	3.98
EWTDERQSKV [GAB3, Q8WWW8]	3.84

molecular target: MAGI1_1, Q96QZ7; assay: holdup assay; parameters: key: below the threshold = too weak to quantify, mostly under pKd 3.1 to 4; conditions: plain residues with an end cap or a label only (N-terminal biotin on a linker: ado-ado)
Sequence (Q96QZ7 1-106): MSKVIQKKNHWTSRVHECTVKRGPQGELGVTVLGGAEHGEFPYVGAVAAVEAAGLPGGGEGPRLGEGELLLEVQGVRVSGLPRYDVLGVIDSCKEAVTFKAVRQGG

Binder	pKd
FTLPAESSEI [PLEKHG7, Q6ZR37]	below the threshold
EWTDERQSKV [GAB3, Q8WWW8]	below the threshold

molecular target: T2, LIN7C, Q9NUP9; assay: holdup assay; parameters: key: below the threshold = too weak to quantify, mostly under pKd 3.1 to 4; conditions: plain residues with an end cap or a label only (N-terminal biotin on a linker: ado-ado)

Binder	pKd
FTLPAESSEI [PLEKHG7, Q6ZR37]	below the threshold
EWTDERQSKV [GAB3, Q8WWW8]	below the threshold

molecular target: IL16_3, Q14005; assay: holdup assay; parameters: key: below the threshold = too weak to quantify, mostly under pKd 3.1 to 4; conditions: plain residues with an end cap or a label only (N-terminal biotin on a linker: ado-ado)
Sequence (Q14005 1107-1207): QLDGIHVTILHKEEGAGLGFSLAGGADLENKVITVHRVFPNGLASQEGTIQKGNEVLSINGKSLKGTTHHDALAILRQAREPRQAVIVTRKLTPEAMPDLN

Binder	pKd
FTLPAESSEI [PLEKHG7, Q6ZR37]	below the threshold
EWTDERQSKV [GAB3, Q8WWW8]	below the threshold

molecular target: T3, HTRA4, P83105; assay: holdup assay; parameters: key: below the threshold = too weak to quantify, mostly under pKd 3.1 to 4; conditions: plain residues with an end cap or a label only (N-terminal biotin on a linker: ado-ado)

Binder	pKd
FTLPAESSEI [PLEKHG7, Q6ZR37]	3.5
EWTDERQSKV [GAB3, Q8WWW8]	below the threshold

molecular target: GOPC, Q9HD26; assay: holdup assay; parameters: key: below the threshold = too weak to quantify, mostly under pKd 3.1 to 4; conditions: plain residues with an end cap or a label only (N-terminal biotin on a linker: ado-ado)

Binder	pKd
FTLPAESSEI [PLEKHG7, Q6ZR37]	below the threshold
EWTDERQSKV [GAB3, Q8WWW8]	3.82

molecular target: T4, LNX2_2, Q8N448; assay: holdup assay; parameters: key: below the threshold = too weak to quantify, mostly under pKd 3.1 to 4; conditions: plain residues with an end cap or a label only (N-terminal biotin on a linker: ado-ado)

Binder	pKd
FTLPAESSEI [PLEKHG7, Q6ZR37]	below the threshold
EWTDERQSKV [GAB3, Q8WWW8]	below the threshold

molecular target: DLG4_2, P78352; assay: holdup assay; parameters: key: below the threshold = too weak to quantify, mostly under pKd 3.1 to 4; conditions: plain residues with an end cap or a label only (N-terminal biotin on a linker: ado-ado)
Sequence (P78352 155-259): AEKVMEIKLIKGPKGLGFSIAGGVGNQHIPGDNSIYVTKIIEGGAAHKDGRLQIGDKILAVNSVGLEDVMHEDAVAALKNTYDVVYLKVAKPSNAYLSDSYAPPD

Binder	pKd
FTLPAESSEI [PLEKHG7, Q6ZR37]	below the threshold
EWTDERQSKV [GAB3, Q8WWW8]	4.03

molecular target: GRIP2_7, Q9C0E4; assay: holdup assay; parameters: key: below the threshold = too weak to quantify, mostly under pKd 3.1 to 4; conditions: plain residues with an end cap or a label only (N-terminal biotin on a linker: ado-ado)
Sequence (Q9C0E4 934-1023): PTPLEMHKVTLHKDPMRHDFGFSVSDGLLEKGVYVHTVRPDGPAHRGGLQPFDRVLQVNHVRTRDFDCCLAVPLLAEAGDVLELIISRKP

Binder	pKd
FTLPAESSEI [PLEKHG7, Q6ZR37]	below the threshold
EWTDERQSKV [GAB3, Q8WWW8]	below the threshold

molecular target: DLG4_1, P78352; assay: holdup assay; parameters: key: below the threshold = too weak to quantify, mostly under pKd 3.1 to 4; conditions: plain residues with an end cap or a label only (N-terminal biotin on a linker: ado-ado)
Sequence (P78352 62-152): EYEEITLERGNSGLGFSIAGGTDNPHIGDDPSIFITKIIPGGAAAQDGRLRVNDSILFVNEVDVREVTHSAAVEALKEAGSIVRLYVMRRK

Binder	pKd
FTLPAESSEI [PLEKHG7, Q6ZR37]	below the threshold
EWTDERQSKV [GAB3, Q8WWW8]	3.79

molecular target: IL16_4, Q14005; assay: holdup assay; parameters: key: below the threshold = too weak to quantify, mostly under pKd 3.1 to 4; conditions: plain residues with an end cap or a label only (N-terminal biotin on a linker: ado-ado)
Sequence (Q14005 1229-1329): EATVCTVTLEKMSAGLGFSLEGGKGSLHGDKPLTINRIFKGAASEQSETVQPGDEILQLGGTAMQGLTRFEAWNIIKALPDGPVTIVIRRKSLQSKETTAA

Binder	pKd
FTLPAESSEI [PLEKHG7, Q6ZR37]	below the threshold
EWTDERQSKV [GAB3, Q8WWW8]	below the threshold

molecular target: DLG2_3, Q15700; assay: holdup assay; parameters: key: below the threshold = too weak to quantify, mostly under pKd 3.1 to 4; conditions: plain residues with an end cap or a label only (N-terminal biotin on a linker: ado-ado)

Binder	pKd
FTLPAESSEI [PLEKHG7, Q6ZR37]	3.75
EWTDERQSKV [GAB3, Q8WWW8]	below the threshold

molecular target: FRMPD4, Q14CM0; assay: holdup assay; parameters: key: below the threshold = too weak to quantify, mostly under pKd 3.1 to 4; conditions: plain residues with an end cap or a label only (N-terminal biotin on a linker: ado-ado)
Sequence (Q14CM0 67-160): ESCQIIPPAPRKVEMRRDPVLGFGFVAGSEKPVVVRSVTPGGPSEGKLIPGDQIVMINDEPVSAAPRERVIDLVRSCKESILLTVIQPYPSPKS

Binder	pKd
FTLPAESSEI [PLEKHG7, Q6ZR37]	below the threshold
EWTDERQSKV [GAB3, Q8WWW8]	below the threshold

molecular target: Inadl_5, Q8NI35; assay: holdup assay; parameters: key: below the threshold = too weak to quantify, mostly under pKd 3.1 to 4; conditions: plain residues with an end cap or a label only (N-terminal biotin on a linker: ado-ado)
Sequence (Q8NI35 673-780): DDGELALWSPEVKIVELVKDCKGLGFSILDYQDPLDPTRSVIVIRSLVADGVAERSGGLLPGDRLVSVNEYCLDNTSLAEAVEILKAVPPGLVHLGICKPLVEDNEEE

Binder	pKd
FTLPAESSEI [PLEKHG7, Q6ZR37]	below the threshold
EWTDERQSKV [GAB3, Q8WWW8]	below the threshold

molecular target: GORASP1, Q9BQQ3; assay: holdup assay; parameters: key: below the threshold = too weak to quantify, mostly under pKd 3.1 to 4; conditions: plain residues with an end cap or a label only (N-terminal biotin on a linker: ado-ado)
Sequence (Q9BQQ3 1-208): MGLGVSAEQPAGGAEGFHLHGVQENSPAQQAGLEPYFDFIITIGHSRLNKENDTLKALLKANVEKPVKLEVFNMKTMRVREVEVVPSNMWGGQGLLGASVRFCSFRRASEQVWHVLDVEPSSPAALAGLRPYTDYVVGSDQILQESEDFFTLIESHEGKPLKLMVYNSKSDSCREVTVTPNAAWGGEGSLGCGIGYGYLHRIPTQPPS

Binder	pKd
FTLPAESSEI [PLEKHG7, Q6ZR37]	below the threshold
EWTDERQSKV [GAB3, Q8WWW8]	below the threshold

molecular target: PDLIM1, O00151; assay: holdup assay; parameters: key: below the threshold = too weak to quantify, mostly under pKd 3.1 to 4; conditions: plain residues with an end cap or a label only (N-terminal biotin on a linker: ado-ado)
Sequence (O00151 1-87): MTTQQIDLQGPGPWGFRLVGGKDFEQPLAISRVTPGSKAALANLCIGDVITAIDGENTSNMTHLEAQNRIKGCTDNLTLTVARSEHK

Binder	pKd
FTLPAESSEI [PLEKHG7, Q6ZR37]	below the threshold
EWTDERQSKV [GAB3, Q8WWW8]	below the threshold

molecular target: MAGI2_2, Q86UL8; assay: holdup assay; parameters: key: below the threshold = too weak to quantify, mostly under pKd 3.1 to 4; conditions: plain residues with an end cap or a label only (N-terminal biotin on a linker: ado-ado)
Sequence (Q86UL8 410-522): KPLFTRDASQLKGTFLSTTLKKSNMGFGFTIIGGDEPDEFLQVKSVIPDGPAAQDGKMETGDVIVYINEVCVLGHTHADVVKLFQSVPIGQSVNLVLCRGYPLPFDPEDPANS

Binder	pKd
FTLPAESSEI [PLEKHG7, Q6ZR37]	below the threshold
EWTDERQSKV [GAB3, Q8WWW8]	below the threshold

molecular target: FRMPD3, Q5JV73; assay: holdup assay; parameters: key: below the threshold = too weak to quantify, mostly under pKd 3.1 to 4; conditions: plain residues with an end cap or a label only (N-terminal biotin on a linker: ado-ado)
Sequence (Q5JV73 12-100): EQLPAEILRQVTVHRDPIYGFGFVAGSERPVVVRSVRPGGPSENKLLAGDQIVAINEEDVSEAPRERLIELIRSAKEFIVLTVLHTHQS

Binder	pKd
FTLPAESSEI [PLEKHG7, Q6ZR37]	below the threshold
EWTDERQSKV [GAB3, Q8WWW8]	below the threshold

molecular target: GRIP2_4, Q9C0E4; assay: holdup assay; parameters: key: below the threshold = too weak to quantify, mostly under pKd 3.1 to 4; conditions: plain residues with an end cap or a label only (N-terminal biotin on a linker: ado-ado)
Sequence (Q9C0E4 446-548): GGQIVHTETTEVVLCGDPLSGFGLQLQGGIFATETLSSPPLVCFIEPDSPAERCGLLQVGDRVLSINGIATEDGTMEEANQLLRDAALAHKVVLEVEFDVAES

Binder	pKd
FTLPAESSEI [PLEKHG7, Q6ZR37]	below the threshold
EWTDERQSKV [GAB3, Q8WWW8]	below the threshold

molecular target: T5, ARHGAP21, Q5T5U3; assay: holdup assay; parameters: key: below the threshold = too weak to quantify, mostly under pKd 3.1 to 4; conditions: plain residues with an end cap or a label only (N-terminal biotin on a linker: ado-ado)

Binder	pKd
FTLPAESSEI [PLEKHG7, Q6ZR37]	below the threshold
EWTDERQSKV [GAB3, Q8WWW8]	4.07

molecular target: T6, PDZRN3_1, Q9UPQ7; assay: holdup assay; parameters: key: below the threshold = too weak to quantify, mostly under pKd 3.1 to 4; conditions: plain residues with an end cap or a label only (N-terminal biotin on a linker: ado-ado)

Binder	pKd
FTLPAESSEI [PLEKHG7, Q6ZR37]	below the threshold
EWTDERQSKV [GAB3, Q8WWW8]	3.62

molecular target: MAGI2_5, Q86UL8; assay: holdup assay; parameters: key: below the threshold = too weak to quantify, mostly under pKd 3.1 to 4; conditions: plain residues with an end cap or a label only (N-terminal biotin on a linker: ado-ado)
Sequence (Q86UL8 915-1017): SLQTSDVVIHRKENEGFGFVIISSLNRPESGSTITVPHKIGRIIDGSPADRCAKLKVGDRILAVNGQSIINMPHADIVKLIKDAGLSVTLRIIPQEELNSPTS

Binder	pKd
FTLPAESSEI [PLEKHG7, Q6ZR37]	below the threshold
EWTDERQSKV [GAB3, Q8WWW8]	3.95

molecular target: LAP2, Q96RT1; assay: holdup assay; parameters: key: below the threshold = too weak to quantify, mostly under pKd 3.1 to 4; conditions: plain residues with an end cap or a label only (N-terminal biotin on a linker: ado-ado)
Sequence (Q96RT1 other isoform, or with tags, fused parts or gaps): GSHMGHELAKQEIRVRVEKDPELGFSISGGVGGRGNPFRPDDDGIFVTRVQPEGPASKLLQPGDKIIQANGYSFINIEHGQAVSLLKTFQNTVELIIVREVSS

Binder	pKd
FTLPAESSEI [PLEKHG7, Q6ZR37]	below the threshold
EWTDERQSKV [GAB3, Q8WWW8]	3.56

molecular target: DLG4_3, P78352; assay: holdup assay; parameters: key: below the threshold = too weak to quantify, mostly under pKd 3.1 to 4; conditions: plain residues with an end cap or a label only (N-terminal biotin on a linker: ado-ado)
Sequence (P78352 306-403): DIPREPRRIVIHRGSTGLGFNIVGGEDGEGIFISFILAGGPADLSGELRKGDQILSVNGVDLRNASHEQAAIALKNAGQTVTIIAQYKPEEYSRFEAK

Binder	pKd
FTLPAESSEI [PLEKHG7, Q6ZR37]	below the threshold
EWTDERQSKV [GAB3, Q8WWW8]	below the threshold

molecular target: TJP1_2, Q07157; assay: holdup assay; parameters: key: below the threshold = too weak to quantify, mostly under pKd 3.1 to 4; conditions: plain residues with an end cap or a label only (N-terminal biotin on a linker: ado-ado)
Sequence (Q07157 181-274): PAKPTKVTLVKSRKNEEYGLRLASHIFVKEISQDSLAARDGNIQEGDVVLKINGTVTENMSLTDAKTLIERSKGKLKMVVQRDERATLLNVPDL

Binder	pKd
FTLPAESSEI [PLEKHG7, Q6ZR37]	below the threshold
EWTDERQSKV [GAB3, Q8WWW8]	below the threshold

molecular target: LNX1_1, Q8TBB1; assay: holdup assay; parameters: key: below the threshold = too weak to quantify, mostly under pKd 3.1 to 4; conditions: plain residues with an end cap or a label only (N-terminal biotin on a linker: ado-ado)
Sequence (Q8TBB1 261-371): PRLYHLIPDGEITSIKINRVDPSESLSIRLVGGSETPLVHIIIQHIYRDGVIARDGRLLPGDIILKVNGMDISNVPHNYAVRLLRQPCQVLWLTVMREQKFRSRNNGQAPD

Binder	pKd
FTLPAESSEI [PLEKHG7, Q6ZR37]	below the threshold
EWTDERQSKV [GAB3, Q8WWW8]	3.52

molecular target: LDB3, O75112; assay: holdup assay; parameters: key: below the threshold = too weak to quantify, mostly under pKd 3.1 to 4; conditions: plain residues with an end cap or a label only (N-terminal biotin on a linker: ado-ado)
Sequence (O75112 1-94): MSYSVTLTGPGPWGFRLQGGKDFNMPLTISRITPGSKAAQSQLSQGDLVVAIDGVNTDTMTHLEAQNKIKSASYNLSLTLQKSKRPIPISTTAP

Binder	pKd
FTLPAESSEI [PLEKHG7, Q6ZR37]	below the threshold
EWTDERQSKV [GAB3, Q8WWW8]	below the threshold

molecular target: MAGI2_3, Q86UL8; assay: holdup assay; parameters: key: below the threshold = too weak to quantify, mostly under pKd 3.1 to 4; conditions: plain residues with an end cap or a label only (N-terminal biotin on a linker: ado-ado)
Sequence (Q86UL8 600-682): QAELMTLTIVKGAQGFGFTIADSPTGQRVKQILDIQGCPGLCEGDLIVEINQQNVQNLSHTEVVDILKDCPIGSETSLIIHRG

Binder	pKd
FTLPAESSEI [PLEKHG7, Q6ZR37]	below the threshold
EWTDERQSKV [GAB3, Q8WWW8]	below the threshold

molecular target: DLG1_2, Q12959; assay: holdup assay; parameters: key: below the threshold = too weak to quantify, mostly under pKd 3.1 to 4; conditions: plain residues with an end cap or a label only (N-terminal biotin on a linker: ado-ado)
Sequence (Q12959 314-412): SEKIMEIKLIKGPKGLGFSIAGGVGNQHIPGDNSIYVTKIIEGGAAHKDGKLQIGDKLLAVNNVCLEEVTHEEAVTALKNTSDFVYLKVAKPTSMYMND

Binder	pKd
FTLPAESSEI [PLEKHG7, Q6ZR37]	below the threshold
EWTDERQSKV [GAB3, Q8WWW8]	4.01

molecular target: HTRA1, Q92743; assay: holdup assay; parameters: key: below the threshold = too weak to quantify, mostly under pKd 3.1 to 4; conditions: plain residues with an end cap or a label only (N-terminal biotin on a linker: ado-ado)
Sequence (Q92743 360-477): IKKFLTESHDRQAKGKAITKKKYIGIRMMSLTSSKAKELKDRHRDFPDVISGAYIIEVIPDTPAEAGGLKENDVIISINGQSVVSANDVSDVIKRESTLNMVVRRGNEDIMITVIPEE

Binder	pKd
FTLPAESSEI [PLEKHG7, Q6ZR37]	3.52
EWTDERQSKV [GAB3, Q8WWW8]	below the threshold

molecular target: Inadl_8, Q8NI35; assay: holdup assay; parameters: key: below the threshold = too weak to quantify, mostly under pKd 3.1 to 4; conditions: plain residues with an end cap or a label only (N-terminal biotin on a linker: ado-ado)
Sequence (Q8NI35 1425-1530): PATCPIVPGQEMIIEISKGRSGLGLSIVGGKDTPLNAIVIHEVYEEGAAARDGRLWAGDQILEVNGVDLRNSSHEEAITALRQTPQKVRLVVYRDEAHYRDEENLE

Binder	pKd
FTLPAESSEI [PLEKHG7, Q6ZR37]	below the threshold
EWTDERQSKV [GAB3, Q8WWW8]	4.02
